The record followed here is paper PMC10083539, “Structural insights into plasmalemma vesicle-associated protein (PLVAP): Implications for vascular endothelial diaphragms and fenestrae” (Proceedings of the National Academy of Sciences of the …, 2023).

Data set [1] deals with the molecule itself. Briefly: SDS-PAGE, reducing vs nonreducing; purified fragments from E. coli SHuffle after 3C cleavage; electrophoretic mobilities in reducing and nonreducing gels; shows disulfide-linked dimers.
The target of data set [2] is T1, hGH fusion with PLVAP ECD from amino acid 104 to the C terminus (fusion protein A of Fig. 9) (Mus musculus, UniProt Q91VC4).
T1 construct: PLVAP, mouse; N terminus at amino acid 104 (TRREME...), extends to the C terminus of PLVAP; source: HEK/293T, transiently transfected, secreted, in serum-free conditioned medium; not shown: hGH (human growth hormone), N-terminal, kept
Briefly: far-Western, overlay or dot blot; immunoblot: hGH-PLVAP deletion fusions in conditioned medium resolved by SDS-PAGE, blots probed with mAb MECA-32 and rabbit anti-hGH, fluorescent secondary antibodies. Conditions: one partner purified. In general terms: A western blot detects proteins with antibodies after separation by electrophoresis.

The target in data set [3] is T2, hGH fusion with PLVAP ECD, N-terminal deletion C (fusion protein C of Fig. 9) (Mus musculus, UniProt Q91VC4).
T2 construct: PLVAP, mouse; extends to the C terminus of PLVAP; Limit may be off by one residue; source: HEK/293T, transiently transfected, secreted, in serum-free conditioned medium; not shown: hGH (human growth hormone), N-terminal, kept
Described as above. To be noted: one partner purified.

In data set [4] the target is T3, hGH fusion with PLVAP ECD from amino acid 143, C-terminal deletion G (fusion protein G of Fig. 9) (Mus musculus, UniProt Q91VC4).
T3 construct: PLVAP, mouse; N terminus at amino acid 143 (QEQLKE...); Limit may be off by one residue; source: HEK/293T, transiently transfected, secreted, in serum-free conditioned medium; not shown: hGH (human growth hormone), N-terminal, kept
The data set is described as above. To be noted: one partner purified.

Data set [5] addresses T4, AP–PLVAP CC2, alkaline phosphatase fused to PLVAP CC2 (Mus musculus, UniProt Q91VC4).
T4 construct: PLVAP, mouse, CC2; The plasmid codes for AP followed by a Myc tag and an 8xHis tag; source: HEK/293T, in conditioned media
Briefly: ELISA; MECA-32/hIgG immobilised on protein A-coated 96-well plates (4 °C overnight); conditioned media with AP-PLVAP CC2, 25 °C, 1 h; 10 mM HEPES pH 7.5, 0.15 M NaCl, 0.05% Tween-20 washes; colorimetric AP reaction (BluePhos). Conditions: one partner purified. In general terms: ELISA stands for enzyme-linked immunosorbent assay.

Data set [6] deals with the molecule itself. Briefly: crystal structure; PLVAP CC1; crystal form I (P212121, 0.2 M sodium malonate pH 5.0, 20% PEG3350, sulfur SAD) and crystal form II (I212121, 0.1 M sodium acetate pH 5.0, 15% PEG 4000), 21 °C.

B1: PLVAP extracellular domain (full-length ECD), residues 52 to 438 (domain or fragment, mouse, UniProt Q91VC4 52-438, looked up)
chain: HATTESSLRATEIRADSLYSQVVGLSASQANLSKQLNISLLVKETVMQQLLTTRREMERINASFRQCQGDLITYINYNRFIAAIILSEKQCQEQLKEVNKTCEALLFKLGEKVKTLEMEVAKEKAVCSKDKESLLAGKRQTEEQLEACGKARERQQQEQQVTEENLRKVQSLCIPLDQEKFQADVLSAWRDSLIYRTLETLPYHYQLMPEYASLRRTCESLPGIMTTKIEELARGLRAGIERVTRENAELRRQKLELERAAQAAQEARARAGTEAQARETQLRAECARQTQLALEEKAALRAQRDNLERELEARKRELEQLRTEVDVRISALDTCVKAKSLPAVPPRVSGPPPNPPPIDPASLEEFKKRILESQRLPVVNPAAQPSG
notes: plasmalemma vesicle-associated protein (PLVAP), mouse, extracellular domain, residues 52 to 438; also called PLVAP ECD; pXG61; source: E. coli SHuffle T7, purified (IMAC, 3C protease cleavage, IMAC, SEC); not shown: thioredoxin (E. coli TrxA), N-terminal, cleaved; 8xHis, N-terminal, cleaved
B1: the binding result in data set [1] is “binds”.

B2: MECA-32, anti-PLVAP monoclonal antibody (antibody, V domains shown)
VH: EVQLVESGGGLVQPGRSMKLSCAASGFTFSDYYMAWVRQAPMKGLKWVASISYEGNKTYYGDSVKGRFTISRDNAKSILYLQMNSLKSEDTATYYCARQSYSSYIFDYWGQGVMVTVSS
VL: DIQMTQTPSSMSASLGERVTISCGTSQGVNIFLNWYQQKPDGTIKPLIFFTSHLQSGVPSRFSGSGSGTAYSLTISSLEPEDFAVYYCQQYDSSPPTFGGGTKLYLK
notes: heavy-chain constant region of the hybridoma antibody; light-chain constant region of the hybridoma antibody; the blots used the bought antibody of the same clone name; also called rat mAb MECA-32 (553849; BD Biosciences); source: bought: BD Biosciences (553849)
As to B2, the binding result in data set [2], in data set [3] and in data set [4] was “binds” throughout.

B3: MECA-32/hIgG, engineered MECA-32 antibody with human constant regions (antibody, V domains shown)
VH: EVQLVESGGGLVQPGRSMKLSCAASGFTFSDYYMAWVRQAPMKGLKWVASISYEGNKTYYGDSVKGRFTISRDNAKSILYLQMNSLKSEDTATYYCARQSYSSYIFDYWGQGVMVTVSS
VL: DIQMTQTPSSMSASLGERVTISCGTSQGVNIFLNWYQQKPDGTIKPLIFFTSHLQSGVPSRFSGSGSGTAYSLTISSLEPEDFAVYYCQQYDSSPPTFGGGTKLYLK
notes: mature VH of MECA-32; human heavy-chain IgG constant region (CH1, CH2 and CH3) with an HRV 3C protease cleavage site between CH1 and CH2; mature VL of MECA-32; human light-chain constant region (CL); Chimeric IgG; held on protein A-coated wells in the assay; also called MECA-32/IgG; engineered MECA-32 Ab; source: HEK/293T, cotransfected heavy- and light-chain plasmids, purified from conditioned …
In the case of B3, in data set [5], the binding result was “binds”.

B4: PLVAP CC2, residues 270 to 395 (domain or fragment, mouse, UniProt Q91VC4 270-395, looked up)
chain: ESLPGIMTTKIEELARGLRAGIERVTRENAELRRQKLELERAAQAAQEARARAGTEAQARETQLRAECARQTQLALEEKAALRAQRDNLERELEARKRELEQLRTEVDVRISALDTCVKAKSLPAV
notes: PLVAP, mouse, coiled-coil segment CC2, residues 270 to 395; also called pXG52; source: E. coli SHuffle T7, purified (IMAC, 3C protease cleavage, IMAC, SEC); not shown: thioredoxin (E. coli TrxA), N-terminal, cleaved; 8xHis, N-terminal, cleaved
Turning to B4, the binding result in data set [1] is given as “binds”.

B5: PLVAP CC1, residues 141 to 229 (domain or fragment, mouse, UniProt Q91VC4 141-229, looked up)
chain: QCQEQLKEVNKTCEALLFKLGEKVKTLEMEVAKEKAVCSKDKESLLAGKRQTEEQLEACGKARERQQQEQQVTEENLRKVQSLCIPLDQ
notes: PLVAP, mouse, coiled-coil segment CC1, residues 141 to 229 (89 amino acids); Parallel dimer with five interchain disulfide bonds; also called pPMS1170; source: E. coli SHuffle T7, purified (IMAC, 3C protease cleavage, IMAC, SEC); not shown: thioredoxin (E. coli TrxA), N-terminal, cleaved; 8xHis, N-terminal, cleaved
Take B5: the “stoichiometry N” value in data set [6] came to 2.

By stoichiometry N is commonly meant a count of units in the complex or per binding partner.
